# In patent US20250340646A1 (ELPIS BIOPHARMACEUTICALS, published 2025):
# T1: recombinant His-tagged human IL-2Rβ (human, UniProt P14784 27-240, limits assumed)
# T1 construct: also called IL-2Rβ-HIS; IL-15Rβ-HIS
# T1 sequence (looked up): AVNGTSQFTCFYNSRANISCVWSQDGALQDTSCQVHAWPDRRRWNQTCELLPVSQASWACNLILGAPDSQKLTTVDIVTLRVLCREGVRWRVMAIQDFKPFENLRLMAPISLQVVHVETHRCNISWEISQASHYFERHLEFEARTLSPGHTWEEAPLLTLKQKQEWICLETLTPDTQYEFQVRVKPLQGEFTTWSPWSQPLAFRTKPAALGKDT
# T2: recombinant His-tagged human IL-2Rα (human, UniProt P01589 22-213, limits assumed)
# T2 construct: also called IL-2Rα-HIS; CD25
# T2 sequence (looked up): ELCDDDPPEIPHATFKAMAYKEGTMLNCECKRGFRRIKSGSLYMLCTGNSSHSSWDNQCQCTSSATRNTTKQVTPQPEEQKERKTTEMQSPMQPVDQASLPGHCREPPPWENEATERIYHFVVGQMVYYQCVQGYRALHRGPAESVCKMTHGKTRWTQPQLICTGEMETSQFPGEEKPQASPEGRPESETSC
# Experiments:
# [1] = target: T3, full-length human PD-L1 on K562 cells (human, UniProt Q9NZQ7 19-290); experiment: FACS, PD-L1/K562 cells
# T3 construct: also called PD-L1/K562; cell surface human PD-L1
# Experimental: Cells were spun down at 1200 rpm for 5 minutes at 4° C. to remove primary antibodies. Cells were then washed once with 200 μL of full medium per well. […] Samples were spun down at 1200 rpm for 5 minutes at 4° C. and washed twice with 200 μL of 1×PBS per well. Samples were reconstituted in 200 μL of 1×PBS and were read on Attune NxT cytometer.
# (§1) The production, the binding, and all of the characterization assays for selected affinity matured scFv clones were performed as described above.
# human PD-L1-Fc [2] = target: T4, human PD-L1-Fc (human, UniProt Q9NZQ7 19-238); experiment: SPR, PD-L1-Fc captured, scFv analyte
# T4 construct: also called recombinant PD-L1-Fc fusion protein
# Experimental: The assay was run with Biacore T200 control software version 2.0. Anti-human Fc antibody was immobilized on flow cell 1 and 2 of CM5 sensor chip. […] The flow cells were then regenerated with antibody regeneration buffer (GE Healthcare) for 30 seconds at flow rate of 30 μl/min.
# as §1
# human PD-L1-Fc [3] = target: T4, human PD-L1-Fc; experiment: ELISA, coated PD-L1-Fc, anti-FLAG HRP
# Experimental: The plate was incubated overnight at 4° C. followed by blocking with 80 μL of superblock per well for 1 hour. […] In between each step, the plate was washed 3 times with 1×PBST in a plate washer. The plate was then developed with 20 μL of TMB substrate for 5 min and stopped by adding 20 μL of 2N sulfuric acid. The plate was read at OD450 nm Biotek plate reader and then plotted in Prism 8.1 software.
# as §1
# human PD-L1-Fc [4] = target: T4, human PD-L1-Fc; experiment: SPR, PD-L1-Fc captured, scFv analyte; exponent sign missing in print, value set to E-03 from the same row's KD x kon
# [5] = target: T1, recombinant His-tagged human IL-2Rβ; experiment: ELISA, coated His-tagged IL-2Rβ
# Experimental: For monovalent IL-2 Fc-fusion proteins, recombinant His-tagged human IL-2Rα and IL-2Rβ were added in 25 μL of 1×PBS to wells of 384-well plate and incubated overnight at 4° C. to coat the plates. Plates were washed three times with 0.05% Tween20/1×PBS. Plates were blocked with 100 μL of SuperBlock for 1 hr at RT and then washed 3 times with 0.05% Tween20/1×PBS. IL-2 mutants were diluted in 0.05% Tween 20/1×PBS from 1000 nM to 0 nM and added to plates for 2 hrs at room temperature. Plates were then washed 6 times with 0.05% Tween20/1×PBS. Anti-HisTag-HRP was diluted 1:5000 in 0.05% Tween20/1×PBS and added to plates for 1 hr at RT. Plates were then washed 6 times with 0.05% Tween 20/1×PBS, and TMB was added to develop blue color. Reactions were stopped with 2N […] and light absorbance at 450 nm was read on a BioTek plate reader. Absorbance versus IL-2 concentration is graphed for human IL-2Rα and IL-2Rβ. […]
# [6] = target: T5, human PD-L1-HIS tagged recombinant protein (human, UniProt Q9NZQ7 19-238); experiment: SPR, Protein A capture, PD-L1-HIS analyte
# T5 construct: also called hPD-L1-HIS; PD-L1 HIS tagged protein
# Experimental: (§2) The assay was run with Biacore T200 control software version 2.0. For each cycle, 1 μg/mL of anti-hPD-L1/IL-2 was captured for 60 seconds at flow rate of 10 μL/min on flow cell 2 in 1×HBSP buffer on Protein A sensor chip. […] The flow cells were then regenerated with Glycine pH2 for 60 seconds at flow rate of 30 μL/min. […] The specific binding response unit was derived from subtraction of binding to reference flow cell 1 from antibody captured flow cell 2.
# [7] = target: T1, recombinant His-tagged human IL-2Rβ; experiment: SPR, Protein A capture, IL-2Rβ-HIS analyte
# Experimental: as §2
# biotinylated PD-L1 = biotinylated PD-L1 (Homo sapiens (Human), UniProt Q9NZQ7 19-238, biotinylated; site not stated); experiment: ELISA, anti-human Fc capture, biotinylated PD-L1
# Experimental: A 384 well plate was immobilized with anti-human Fc at final concentration of 2 μg/mL in 1×PBS in total volume of 25 μL per well. The plate was incubated overnight at 4C followed by blocking with 80 μL of superblock per well for 1 hour. […] In between each step, the plate was washed 3 times with 1×PBST in a plate washer. The plate was then developed with 25 μL of TMB substrate for 5 min and stopped by adding 25 μL of 2N sulfuric acid. The plate was read at OD450 nm Biotek plate reader and the binding correlation was plotted with Prism 8.1 software. The ELISA binding assays of the antibodies to IL-2Rα and IL-2Rβ receptors were performed as described in Example 6.
# [8] = target: T2, recombinant His-tagged human IL-2Rα; experiment: ELISA, coated His-tagged human IL-2Rα, OD 450 nm
# Experimental: For monovalent IL-2 Fc-fusion proteins, recombinant His-tagged human IL-2Rα and IL-2Rβ were added in 25 μL of 1×PBS to wells of 384-well plate and incubated overnight at 4° C. to coat the plates. Plates were washed three times with 0.05% Tween20/1×PBS. Plates were blocked with 100 μL of SuperBlock for 1 hr at RT and then washed 3 times with 0.05% Tween20/1×PBS. IL-2 mutants were diluted in 0.05% Tween 20/1×PBS from 1000 nM to 0 nM and added to plates for 2 hrs at room temperature. Plates were then washed 6 times with 0.05% Tween20/1×PBS. Anti-HisTag-HRP was diluted 1:5000 in 0.05% Tween20/1×PBS and added to plates for 1 hr at RT. Plates were then washed 6 times with 0.05% Tween 20/1×PBS, and TMB was added to develop blue color. Reactions were stopped with 2N […] and light absorbance at 450 nm was read on a BioTek plate reader. Absorbance versus IL-2 concentration is graphed for human IL-2Rα and IL-2Rβ.
# A 384 well plate was immobilized with anti-human Fc at final concentration of 2 μg/mL in 1×PBS in total volume of 25 μL per well. The plate was incubated overnight at 4C followed by blocking with 80 μL of superblock per well for 1 hour. […] In between each step, the plate was washed 3 times with 1×PBST in a plate washer. […] The plate was read at OD450 nm Biotek plate reader and the binding correlation was plotted with Prism 8.1 software. […]
# [9] = target: PD-L1 on PD-L1 aAPC/CHOK1 cells (Promega J1250); experiment: cell-based or functional assay
# [10] = target: T6, PD-L1 biotinylated (PD-1/PD-L1 TR-FRET assay kit, BPS 72038) (Homo sapiens (Human), UniProt Q9NZQ7 19-238, biotinylated; site not stated); experiment: HTRF competition, competitor PD-1-Eu
# T6 construct: Kit reagent
# Experimental: Briefly, 1× Immuno buffer 1 was made. […] For each well in 384-well plate, serial diluted scFvs and regents were added according to manufacturer's recommended volume. Samples were incubated at room temperature for 1.5 hours then the fluorescent intensity was read with Biotek Neo2 plate reader using manufacture's instrument setting for the assay.
# [11] = target: T1, recombinant His-tagged human IL-2Rβ; experiment: SPR, Protein A capture, IL-2Rβ-HIS analyte, steady state affinity
# Experimental: as §2
binder,measurement,setting,value
"2019EP69-C05 scFv (scFv, V domains shown) VH: QVQLVQSGAEVKKPGSSVKVSCKASGGTFSSYAISWVRQAPGQGLEWMGGIIPIFGTANYAQKFQGRVTITADESTSTAYMELSSLRSEDTAVYYCARDKGYGSGFRGDYWGQGTLVTVSS VL: QSVLTQPPSASGTPGQRVTISCSGSYSNIGSNFVNWYQQLPGTAPKLLIHFNNQRPSGVPDRFSGSRSGTSASLAISGLQSEDEADYFCSTWDDSLKGPIFGGGTKLTVL",EC50,[1],0.221 nM
same,Kd,human PD-L1-Fc [2],2.58 nM
same,kon,human PD-L1-Fc [2],1.76e+06 M⁻¹ s⁻¹
same,EC50,human PD-L1-Fc [3],0.507 nM
same,koff,human PD-L1-Fc [4],0.00454 s⁻¹
"IL-2/anti-PD-L1 scFv Fc EP413/EP326 (bispecific antibody, IL2 EP001 carrying K35L/R38D/F42R) chain 1: not shown chain 2: QVQLVQSGAEVKKPGSSVKVSCKASGGTFSSYAISWVRQAPGQGLEWMGGIIPIFGTANYAQKFQGRVTITADESTSTAYMELSSLRSEDTAVYYCARDKWYGSAWRGDYWGQGTLVTVSSGGGGSGGGGSGGGGSQSVLTQPPSASGTPGQRVTISCSGSYSNIGSNFVNWYQQLPGTAPKLLIHFNNQRPSGVPDRFSGSRSGTSASLAISGLQSEDEADYFCSTWDDSLKGPIFGGGTKLTVLDKTHTCPPCPAPEAAGGPSVFLFPPKPKDTLMISRTPEVTCVVVDVSHEDPEVKFNWYVDGVEVHNAKTKPREEQYNSTYRVVSVLTVLHQDWLNGKEYKCKVSNKALGAPIEKTISKAKGQPREPQVCTLPPSRDELTKNQVSLSCAVKGFYPSDIAVEWESNGQPENNYKTTPPVLDSDGSFKLVSKLTVDKSRWQQGNVFSCSVMHEALHNHYTQKSLSLSPGK",EC50,[5],0.545 nM
same,Kd,[6],0.507 nM
same,koff,[6],0.000247 s⁻¹
same,kon,[6],487000 M⁻¹ s⁻¹
same,Kd,[7],6.5 nM
same,koff,[7],0.0107 s⁻¹
same,kon,[7],1.65e+06 M⁻¹ s⁻¹
same,EC50,biotinylated PD-L1,0.345 nM
same,binding result,[8],no binding (tested: LOG(IL-2(nM)) 2 (100 nM))
"IL-2/anti-PD-L1 scFv Fc EP418/EP326 (bispecific antibody, IL2 EP340) chain 1: not shown chain 2: QVQLVQSGAEVKKPGSSVKVSCKASGGTFSSYAISWVRQAPGQGLEWMGGIIPIFGTANYAQKFQGRVTITADESTSTAYMELSSLRSEDTAVYYCARDKWYGSAWRGDYWGQGTLVTVSSGGGGSGGGGSGGGGSQSVLTQPPSASGTPGQRVTISCSGSYSNIGSNFVNWYQQLPGTAPKLLIHFNNQRPSGVPDRFSGSRSGTSASLAISGLQSEDEADYFCSTWDDSLKGPIFGGGTKLTVLDKTHTCPPCPAPEAAGGPSVFLFPPKPKDTLMISRTPEVTCVVVDVSHEDPEVKFNWYVDGVEVHNAKTKPREEQYNSTYRVVSVLTVLHQDWLNGKEYKCKVSNKALGAPIEKTISKAKGQPREPQVCTLPPSRDELTKNQVSLSCAVKGFYPSDIAVEWESNGQPENNYKTTPPVLDSDGSFKLVSKLTVDKSRWQQGNVFSCSVMHEALHNHYTQKSLSLSPGK",NFAT reporter EC50,[9],9.07 nM
same,IC50,[10],346 nM
same,Kd,[6],0.547 nM
same,EC50,biotinylated PD-L1,0.287 nM
same,Kd,[11],75.8 nM
